The numbers were not newly measured in patent publication US20110294730A1, “METHOD OF TREATING GLAUCOMA AND INTRAOCULAR HYPERTENSION” (priority 2010, published 2011), which cites them from elsewhere.

The data set relates to trabecular meshwork.

B1: IL-Ia: exogenous growth factor (protein, UniProt P01583 113-271, looked up)
Interleukin-1 alpha: SAPFSFLSNVKYNFMRIIKYEFILNDALNQSIIRANDQYLTAAALHNLDEAVKFDMGAYKSSKDDAKITVILRISKTQLYVTAQDEDQPVLLKEMPEIPKTITGSETNLLFFWETHGTKNYFTSVAHPNLFIATKQDYWVCLAGGPPSITDFQILENQA
As for B1, the extracellular acidification entry is “significantly stimulated”.
